± gives the uncertainty stated by the source.
Test: protein stability index of a GFP-peptide fusion (yeast GPS) (PSI 1-4); higher = more stable; sorted into four equal gates, so the index is relative within each strain
How it was run: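 Tiled 17-residue yeast protein peptides were fused downstream of GFP in a plasmid that also expresses Cherry, and the pooled library was carried in yeast. Mid-log cultures in leucine-free medium were sorted into four equal gates by GFP/Cherry fluorescence ratio, and plasmids from each gate were PCR-amplified and Illumina-sequenced, with reads assigned to strains by barcodes. The protein stability index for each peptide was each gate's read frequency times its gate number, summed.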

Row | Sequence | protein stability index (doa10∆) | protein stability index (pdr5∆) | protein stability index (san1∆) | protein stability index (ubr1∆)
1 | LIPASDLSWSKQTDTGI [PRP8] | 2.32 ± 0.089 | 2.68 ± 0.063 | 2.79 ± 0.065 | 2.38 ± 0.044
2 | ERSYPSEFANQNQGGAQ [ROX3] | 2.98 ± 0.083 | 3.07 ± 0.092 | 2.96 ± 0.066 | 3.17 ± 0.061
3 | KLKGLMKLNILDERFAS [IRR1] | 2.29 ± 0.13 | 2.75 ± 0.083 | 2.4 ± 0.16 | 2.35 ± 0.064
4 | LKRISDGLSFGKGESVI [SIR3] | 3.21 ± 0.28 | – | 3.33 ± 0.099 | 3.76 ± 0.19
5 | LLIEFPYLPKHYLVLLV [YJR042W/NUP85] | 1.98 ± 0.06 | 1.67 ± 0.053 | 2.07 ± 0.067 | 1.81 ± 0.047
6 | QTKDSVKEIVLPLFYDL [IRR1] | 2.42 ± 0.06 | 2.4 ± 0.057 | 2.6 ± 0.05 | 2 ± 0.035
7 | LEDLVFPTEIVGKRVRY [RPS7A] | – | 3.52 ± 0.28 | – | 3.71 ± 0.25
8 | QVVTTVASQSPHATATE [SNF6] | 2.56 ± 0.11 | 2.88 ± 0.079 | 2.6 ± 0.096 | 2.79 ± 0.047
9 | RKYDLFQNLELETEQLS [SMC2] | 3.21 ± 0.073 | 3.1 ± 0.076 | 1.99 ± 0.17 | 2.17 ± 0.059
10 | IGVLNNSSESDEEESND [RPN13] | 3.52 ± 0.2 | 2.4 ± 0.25 | – | 3.37 ± 0.095
11 | QQQQQNTNNNDTIATSA [GAL11] | 2.457 ± 0.021 | 2.576 ± 0.02 | 2.478 ± 0.021 | 2.603 ± 0.018
12 | KIAGIEGHLAEIRAKEY [SRB2] | 3.36 ± 0.12 | 3.41 ± 0.097 | 3.4 ± 0.071 | 3.31 ± 0.058
13 | SYALSMEKDKLKNLLRS [SNU114] | 2.97 ± 0.25 | 2.24 ± 0.1 | 2.31 ± 0.16 | 2.68 ± 0.13
14 | VQDKDTLSNAERAKNVN [GAL11] | – | 2.71 ± 0.23 | 2.71 ± 0.18 | 2.91 ± 0.12
15 | MVNIGLHNLNEYQIVYY [RGR1] | 1.65 ± 0.14 | 2.56 ± 0.1 | 2.11 ± 0.11 | 1.43 ± 0.27
16 | SNNQVIKMQRQFSQLND [MED6] | 3.01 ± 0.073 | 3.04 ± 0.059 | 3.03 ± 0.064 | 3.18 ± 0.06
17 | KTVKELRQLLKERYTVE [RRI1] | 2.74 ± 0.054 | 2.1 ± 0.062 | 2.1 ± 0.066 | 3.06 ± 0.068
18 | ETDNEMNGNGKPGIPRG [SIR3] | 3.16 ± 0.099 | 3.11 ± 0.083 | 3.39 ± 0.053 | 2.99 ± 0.1
19 | IKTFYWLEQFLSCVKND [NUT1] | 1.31 ± 0.052 | 1.26 ± 0.038 | 1.18 ± 0.061 | 1.13 ± 0.035
20 | SSNIAGTNPLSSDGAYT [SSN2] | 3.04 ± 0.13 | 2.73 ± 0.17 | 3.03 ± 0.062 | 3.33 ± 0.12
21 | HASFLCSFITQDKMFVS [FAS1] | 2.01 ± 0.063 | 1.64 ± 0.056 | 1.35 ± 0.1 | 1.35 ± 0.033
22 | ERKKQSDVLRFLQRVRV [RPL15B] | 2.08 ± 0.06 | 2.43 ± 0.062 | 2.04 ± 0.066 | 2.12 ± 0.043
23 | SSNCHVRQKIKTLKRMI [POP1] | 1.41 ± 0.04 | 1.75 ± 0.053 | 1.42 ± 0.091 | 2.01 ± 0.045
24 | PFNKPNIETGENHNGQS [SWI3] | 3.3 ± 0.14 | 3.16 ± 0.12 | 3.22 ± 0.13 | 2.78 ± 0.13
25 | TKSNRRVSHSDTNSSKP [SIR4] | 2.97 ± 0.077 | 3.19 ± 0.085 | 2.99 ± 0.077 | 3.25 ± 0.053
26 | LITPAVRNTAPNIRELG [YCG1] | 2.57 ± 0.18 | 2.76 ± 0.15 | 2.68 ± 0.28 | 3.09 ± 0.093
27 | LSHIVYFLVLSPYGNLQ [RPN5] | 1.53 ± 0.054 | 1.33 ± 0.055 | 1.25 ± 0.087 | 1.12 ± 0.034
